One assay addresses T1, IGFBP‐3 Nonglycosylated (Homo sapiens, UniProt P17936).
T1 construct: We therefore elected to use the full‐length IGFBP‐3 protein to examine the effect of glycosylation; purchased MyBioSource MBS142177
Nature of the assay: ELISA binding of biotin-HA or biotin-HN to immobilized nonglycosylated IGFBP-3. The conditions noted are these: nonglycosylated IGFBP-3 (50 nM) coated; 0–2 μM biotin-ligand, overnight 4 °C; mean ± SD of three independent experiments in triplicate; read-out: concentration of biotin-HA or biotin-HN that produced 50% of maximum binding. As for the experimental part:
(§1) ELISA was conducted as we reported previously. Nunc MaxiSorp 96‐well flat‐bottom plates (Thermo Fisher, Waltham, MA, USA) were coated with samples as indicated. The plates were incubated overnight at 4 °C on a shaker to allow binding of the samples to the plate wells. After the incubation, the wells were washed 4× with TBST, filled with 400 µL blocking buffer (110 mM KCl, 5 mM NaHCO3, 5 mM MgCl2, 1 mM EGTA, 0.1 mM CaCl2, 20 mM HEPES, 1% BSA, pH 7.4), and incubated overnight at 4 °C on a shaker. The wells were then washed 4× with TBST, and 100 µL of sample at the desired concentration was added to each well before incubating overnight at 4 °C on a shaker. TBST was then used to wash the wells 4× before proceeding in one of two ways: (a) Biotinylated samples were analyzed by adding 100 µL streptavidin–HRP conjugate in TBST (1 : 2500 dilution) to the samples before incubating for 3 h at RT on a shaker, or (b) samples without biotin were analyzed by adding 100 µL TBST containing the primary antibody at the manufacturer's recommendation and incubating for 3 h at RT on a shaker before washing 4× with TBST. […] The reaction was stopped with 100 µL 2 M H2SO4 after incubating at RT for 0.5–15 min, resulting in a yellow color change that was measured by absorbance at 450 nm. […] Statistical analysis was determined by the GRAPHPAD PRISM 8.4.2 software (San Diego, CA, USA). […]
On the technique in general: ELISA stands for enzyme-linked immunosorbent assay.

For a further assay, the target named is T2, IGFBP‐3 Glycosylated (Homo sapiens, UniProt P17936).
T2 construct: We therefore elected to use the full‐length IGFBP‐3 protein to examine the effect of glycosylation; His; purchased Speed BioSystems YCP1009
T2 sequence (P17936 28-291): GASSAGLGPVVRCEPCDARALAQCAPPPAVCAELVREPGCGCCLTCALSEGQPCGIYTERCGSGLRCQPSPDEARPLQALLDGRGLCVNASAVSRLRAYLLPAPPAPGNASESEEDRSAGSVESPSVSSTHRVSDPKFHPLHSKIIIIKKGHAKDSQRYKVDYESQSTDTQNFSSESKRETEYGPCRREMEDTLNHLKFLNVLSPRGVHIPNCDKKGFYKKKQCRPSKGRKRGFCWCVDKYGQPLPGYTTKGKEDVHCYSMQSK
Put plainly: ELISA binding of biotin-HA or biotin-HN to immobilized glycosylated IGFBP-3. The following applies: glycosylated IGFBP-3 (50 nM) coated; 0–2 μM biotin-ligand, overnight 4 °C; mean ± SD of three independent experiments in triplicate; read-out: concentration of biotin-HA or biotin-HN that produced 50% of maximum binding. As for the experimental part:
as §1

For assay [1], the target named is T3, IGFBP‐3 Nonglycosylated/Reduced (Homo sapiens, UniProt P17936).
T3 construct: We therefore elected to use the full‐length IGFBP‐3 protein to examine the effect of glycosylation; purchased MyBioSource MBS142177
T3 sequence (P17936 28-291): as above
Put plainly: ELISA binding of biotin-HA or biotin-HN to immobilized nonglycosylated/reduced IGFBP-3. The conditions noted are these: nonglycosylated/reduced (TCEP, NEM) IGFBP-3 (50 nM) coated; 0–2 μM biotin-ligand, overnight 4 °C; mean ± SD of three independent experiments in triplicate; read-out: concentration of biotin-HA or biotin-HN that produced 50% of maximum binding. On the procedure: as §1

Assay [2] deals with T4, IGFBP‐3 Glycosylated/Reduced (Homo sapiens, UniProt P17936).
T4 construct: We therefore elected to use the full‐length IGFBP‐3 protein to examine the effect of glycosylation; His; purchased Speed BioSystems YCP1009
T4 sequence (P17936 28-291): as above
Nature of the assay: ELISA binding of biotin-HA or biotin-HN to immobilized glycosylated/reduced IGFBP-3. The following applies: glycosylated/reduced (TCEP, NEM) IGFBP-3 (50 nM) coated; 0–2 μM biotin-ligand, overnight 4 °C; mean ± SD of three independent experiments in triplicate; read-out: concentration of biotin-HA or biotin-HN that produced 50% of maximum binding. On the procedure:
as §1

Results on one substance are retold here after article PMC7396449, “Biochemical determinants of the IGFBP‐3–hyaluronan interaction” (FEBS Open Bio, 2020).

T1 sequence (P17936 28-291): as above

Take “Biotin‐HN: biotin-HN (B-018-26, UniProt Q8IVG9), Phoenix Pharmaceuticals; biotinylated humanin”: the EC50 in the assay with IGFBP‐3 Nonglycosylated was 0.092 ± 0.016 µM; with IGFBP‐3 Glycosylated, 0.104 ± 0.014 µM; in assay [1] it was 0.096 ± 0.012 µM; in assay [2] it was 0.098 ± 0.016 µM.
